From publication PMC5663709

Key:
[1] = molecular target: cell surface-expressed H3N2 WN/05 HA trimer (influenza A virus A/Wisconsin/67/2005 (H3N2)); test: FACS
[2] = molecular target: recombinant hemagglutinin (HA) trimer of H1N1 A/California/07/2009, ectodomain (influenza A virus A/California/07/2009 (H1N1)) (UniProt C3W5X2); test: ELISA
[3] = molecular target: recombinant hemagglutinin (HA) trimer of H7N9 A/Anhui/1-BALF_RG17/2013, ectodomain (influenza A virus A/Anhui/1-BALF_RG17/2013 (H7N9)); test: ELISA
[4] = molecular target: recombinant hemagglutinin (HA) trimer of H3N2 A/Wisconsin/67/2005, ectodomain (influenza A virus A/Wisconsin/67/2005 (H3N2)); test: ELISA
[5] = molecular target: recombinant hemagglutinin (HA) trimer of H5N1 A/Vietnam/1203/2004, ectodomain (influenza A virus A/Vietnam/1203/2004 (H5N1)) (UniProt Q6DQ33); test: ELISA

## FI6V3
[1]
  EC50: 0.065 µg/mL
[2]
  EC50: 0.0107 µg/mL
[3]
  EC50: 0.314 µg/mL
[4]
  EC50: 0.0789 µg/mL
[5]
  EC50: 0.00648 µg/mL

## C05
[1]
  EC50: 0.13 µg/mL
[4]
  EC50: 0.00844 µg/mL

## F10
[2]
  EC50: 0.0122 µg/mL
[5]
  EC50: 0.021 µg/mL

## CR8020
[1]
  EC50: 0.569 µg/mL
[4]
  EC50: 0.0194 µg/mL
